Measurements published in US9809653B2, “Anti-LAMP1 antibodies and antibody drug conjugates, and uses thereof” (SANOFI, priority 2012, dated 2017).
Numbering of substitutions follows the chain as printed.

Columns and labels:
[1] = biological target: T1, Hybrid LAMP1 / glycan-deleted LAMP1 transmembrane proteins (Mus musculus, UniProt P11438, A146K/E181G/G176S/K100R/K140R/K180R/L93T/N144D/N177S/S175N/T102A/Y92H); test: Binding onto membrane-anchored hybrid or mutated LAMP1 proteins (293-F cells) by flow cytometry; parameters: species or system human/mouse; settings: pXL6092 mLAMP1_hseq6-9-11_ΔGYQTI; Table 17 Experiment no2
T1 construct: expressed in transfected cells; host or cells: 293-F (HEK293-derived), transient transfection
T1 sequence (P11438 with tags, fused parts or gaps Y92H/L93T/K100R/T102A/K140R/N144D/A146K/S175N/G176S/N177S/K180R/E181G): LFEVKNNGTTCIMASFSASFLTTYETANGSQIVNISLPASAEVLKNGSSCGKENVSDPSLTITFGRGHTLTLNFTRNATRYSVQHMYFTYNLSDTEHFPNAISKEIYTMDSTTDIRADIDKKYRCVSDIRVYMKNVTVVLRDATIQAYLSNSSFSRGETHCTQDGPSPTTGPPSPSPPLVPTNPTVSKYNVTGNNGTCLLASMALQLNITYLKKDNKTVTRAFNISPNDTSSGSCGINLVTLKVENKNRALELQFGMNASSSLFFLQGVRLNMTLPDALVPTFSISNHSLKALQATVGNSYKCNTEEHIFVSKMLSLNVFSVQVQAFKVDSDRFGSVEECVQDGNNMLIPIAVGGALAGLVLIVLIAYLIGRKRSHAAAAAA

[2] = biological target: T2, Alascan LAMP1 transmembrane proteins (hLAMP1_ΔGYQTI mutants) (Homo sapiens, UniProt P11279, D150A); test: Ala scan of LAMP1 transmembrane proteins, flow cytometry; format: binding; settings: pXL6085, D150A in hLAMP1_ΔGYQTI; loss = decrease of more than 50% of the mean fluorescence
T2 construct: expressed in transfected cells; host or cells: HEK293 (293-F), transient transfection
T2 sequence (P11279 with tags, fused parts or gaps D150A): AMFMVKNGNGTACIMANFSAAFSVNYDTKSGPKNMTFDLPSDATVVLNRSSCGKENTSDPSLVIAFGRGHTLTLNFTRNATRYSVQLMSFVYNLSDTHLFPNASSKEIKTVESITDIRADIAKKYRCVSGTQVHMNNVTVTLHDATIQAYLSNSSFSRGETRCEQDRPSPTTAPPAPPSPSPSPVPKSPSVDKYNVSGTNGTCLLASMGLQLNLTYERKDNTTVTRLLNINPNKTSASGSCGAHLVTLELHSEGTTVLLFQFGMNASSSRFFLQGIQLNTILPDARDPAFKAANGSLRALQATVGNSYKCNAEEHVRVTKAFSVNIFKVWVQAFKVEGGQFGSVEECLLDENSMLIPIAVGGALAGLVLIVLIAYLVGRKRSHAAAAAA
Description: (§1) Individual residues identified in example 6.5 and not involved in β-strand structure have been individually replaced by an alanine residue in the LAMP1 sequence derived from hLAMP1_ΔGYQTI and encoded in plasmid pXL5626 (example 6.4). A total of 21 plasmids were engineered from pXL5626 (see Table 19) and used to assay LAMP1 expression at the cell membrane of HEK293 cells after transient transfection. Two days post transfection cells were processed, analyzed by flow cytometry (Guava® easyCyte™ 8HT) as mentioned in example 4.7, and the mean fluorescence was recorded. This fluorescence represents a semi-quantitative assessment of binding. Loss of binding is reported on Table 19 when there is a decrease of more than 50% of the mean fluorescence compared to the control protein encoded from pXL5626.

[3] = biological target: T3, Alascan LAMP1 transmembrane proteins (hLAMP1_ΔGYQTI mutants) (Homo sapiens, UniProt P11279, R186A); test: as above; format: binding; settings: pXL6081, R186A in hLAMP1_ΔGYQTI; loss = decrease of more than 50% of the mean fluorescence
T3 construct: expressed in transfected cells; host or cells: HEK293 (293-F), transient transfection
T3 sequence (P11279 with tags, fused parts or gaps R186A): T2 sequence (P11279 with tags, fused parts or gaps D150A) with A122D, R158A
Description: as §1

[4] = biological target: T4, Alascan LAMP1 transmembrane proteins (hLAMP1_ΔGYQTI mutants) (Homo sapiens, UniProt P11279, I149A); test: as above; format: binding; settings: pXL6070, I149A in hLAMP1_ΔGYQTI; loss = decrease of more than 50% of the mean fluorescence
T4 construct: expressed in transfected cells; host or cells: HEK293 (293-F), transient transfection
T4 sequence (P11279 with tags, fused parts or gaps I149A): T2 sequence (P11279 with tags, fused parts or gaps D150A) with I121A, A122D
Description: as §1

Binding call [1]: Full binding
Mean fluorescence [1]: 499
Binding to mAb, Alascan [2]: Binding loss
Binding to mAb, Alascan [3]: Binding loss
Binding to mAb, Alascan [4]: Binding loss
B1: MAb1: murine monoclonal anti-LAMP1 antibody, VH SEQ ID NO: 1, VL SEQ ID NO: 5 (antibody, V domains shown)
VH: QVQLQQSGAELVKPGASVKMSCKASGYIFTNYNIHWVKKSPGQGLEWIGAIYPGNGDAPYSQKFKDKATLTADKSSSTTYMQLSRLTSEDSAVYYCVRANWDVAFAYWGQGTLVSVSA
VL: DIQMTQSPPSLSASLGGKVTITCKASQDIDRYMAWYQDKPGKGPRLLIHDTSTLQPGIPSRFSGSGSGRDYSFSISNLEPEDIATYYCLQYDNLWTFGGGTKLEIK
modifications: Antibody Fragment; antibody fragment
